Test results: paper PMC8837689, “Allosteric control of Ubp6 and the proteasome via a bidirectional switch” (Nature Communications, 2022)
Changes are numbered by the printed parent chain. Names and notes keep the numbering of the source. Values belong to the molecule of their own block, whether it stands above or below them.

Legend:
[1] = biological target: 26S proteasome purified from ubp6Δ hul5Δ yeast (nominally wild-type), Protein A-tagged (budding yeast) (UniProt P33299); experiment: Ub-AMC hydrolysis (activation of Ubp6 as a proxy for the association); Ubp6 1.25 nM to 60 nM titrated on 1 nM proteasome with 1 μM Ub-AMC; rates of Ubp6 alone and proteasome alone subtracted; hyperbolic fit; 50 mM Tris-HCl pH 7.5, 1 mM EDTA, 1 mM ATP, 5 mM MgCl2, 1 mM DTT, 1 mg/mL ovalbumin
[2] = biological target: 26S proteasome purified from ubp6Δ hul5Δ yeast (nominally wild-type), Protein A-tagged (budding yeast) (UniProt P33299)
[3] = biological target: 26S proteasome purified from rpt1-RK ubp6Δ hul5Δ yeast, Protein A-tagged (budding yeast) (UniProt P33299)
[4] = biological target: 26S proteasome purified from rpt1-RK ubp6Δ hul5Δ yeast, Protein A-tagged (budding yeast) (UniProt P33299); experiment: Ub-AMC hydrolysis (activation of Ubp6 as a proxy for the association); Ubp6 1.25 nM to 60 nM titrated on 1 nM proteasome with 1 μM Ub-AMC; rates of Ubp6 alone and proteasome alone subtracted; hyperbolic fit; 50 mM Tris-HCl pH 7.5, 1 mM EDTA, 1 mM ATP, 5 mM MgCl2, 1 mM DTT, 1 mg/mL ovalbumin
[5] = biological target: T1, Rpt6 (proteasome subunit) (budding yeast, UniProt Q01939 1-405); experiment: cryo-EM structure; 26S proteasomes and Ubp6-UbVS mixed 1:4 (400 nM 26S or 26S Rpt1-RK, 1.6 μM Ubp6-UbVS), 20 min on ice; 20 mM HEPES-NaOH pH 7.4, 40 mM NaCl, 4 mM DTT, 4 mM MgCl2, 4 mM ATP, ~25% sucrose; maps at 6 to 7 Å, models by flexible fitting; conditions: both partners purified
T1 construct: Rpt6, ATPase of the regulatory particle, budding yeast; Stood in the assay as a subunit of m6; source: subunit of the 26S proteasome (3X FLAG) purified from yeast
T1 sequence: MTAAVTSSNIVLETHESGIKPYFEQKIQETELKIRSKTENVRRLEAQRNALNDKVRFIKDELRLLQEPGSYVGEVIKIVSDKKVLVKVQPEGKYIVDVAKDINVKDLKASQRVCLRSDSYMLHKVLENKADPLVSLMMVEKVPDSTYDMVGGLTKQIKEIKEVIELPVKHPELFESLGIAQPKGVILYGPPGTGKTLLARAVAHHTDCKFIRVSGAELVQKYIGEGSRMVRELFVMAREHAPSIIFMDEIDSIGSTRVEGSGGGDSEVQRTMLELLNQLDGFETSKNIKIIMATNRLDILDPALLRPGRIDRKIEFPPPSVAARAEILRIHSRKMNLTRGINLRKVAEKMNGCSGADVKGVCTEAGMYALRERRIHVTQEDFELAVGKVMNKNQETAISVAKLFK

[6] = biological target: T2, Ubp6 (wild-type, His6-tagged) (budding yeast, UniProt P43593 1-499); experiment: as above; conditions: both partners purified
T2 construct: Ubp6, deubiquitinating enzyme, budding yeast; N-terminal UBL domain and C-terminal catalytic domain (residues 104 to 499); In the cryo-EM rows Ubp6 stood as the UbVS adduct; only the catalytic domain (104-499) was modelled; also called His6-Ubp6; wild-type Ubp6; source: E. coli Rosetta (DE3), purified (Ni-NTA)
T2 sequence (looked up): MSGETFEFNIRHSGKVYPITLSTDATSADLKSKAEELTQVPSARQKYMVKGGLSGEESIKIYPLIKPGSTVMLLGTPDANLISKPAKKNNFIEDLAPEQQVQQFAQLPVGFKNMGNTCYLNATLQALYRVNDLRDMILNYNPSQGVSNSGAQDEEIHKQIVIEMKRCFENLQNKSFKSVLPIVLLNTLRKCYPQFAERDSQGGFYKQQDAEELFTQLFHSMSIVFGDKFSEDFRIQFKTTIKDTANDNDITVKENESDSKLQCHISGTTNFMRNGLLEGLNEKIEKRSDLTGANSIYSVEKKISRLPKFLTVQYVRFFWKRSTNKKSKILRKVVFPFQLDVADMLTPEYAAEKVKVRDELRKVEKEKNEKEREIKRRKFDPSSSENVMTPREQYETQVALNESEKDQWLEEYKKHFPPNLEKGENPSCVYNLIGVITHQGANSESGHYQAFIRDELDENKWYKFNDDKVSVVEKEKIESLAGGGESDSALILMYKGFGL

Kd [1]: 4 nM
proteasome-activated deubiquitinating activity (Ub-AMC hydrolysis) of Ubp6-AA relative to wild-type Ubp6 [2]: 2 % of WT
Molecule: Ubp6-I329A L330A (from UniProt P43593 97-499) (enzyme)

capacity of the Rpt1-RK proteasome to activate wild-type Ubp6 (Ub-AMC hydrolysis), loss relative to wild-type proteasome [3]: 97 % lost
Kd [4]: 2 nM
Kd [1]: 3.3 nM
Molecule: Ubp6 (wild-type, His6-tagged) (from UniProt P43593 1-499) (enzyme)

binding result [5]: binds
B1: α2 subunit of the CP α ring (natural protein, budding yeast)
chain: MTDRYSFSLTTFSPSGKLGQIDYALTAVKQGVTSLGIKATNGVVIATEKKSSSPLAMSETLSKVSLLTPDIGAVYSGMGPDYRVLVDKSRKVAHTSYKRIYGEYPPTKLLVSEVAKIMQEATQSGGVRPFGVSLLIAGHDEFNGFSLYQVDPSGSYFPWKATAIGKGSVAAKTFLEKRWNDELELEDAIHIALLTLKESVEGEFNGDTIELAIIGDENPDLLGYTGIPTDKGPRFRKLTSQEINDRLEAL
notes: alpha2 subunit of the core particle alpha ring, budding yeast; Stood in the assay as a subunit of m6; source: subunit of the 26S proteasome (3X FLAG) purified from yeast

binding result [5]: binds
B2: α3 subunit of the CP α ring (natural protein, budding yeast)
chain: MGSRRYDSRTTIFSPEGRLYQVEYALESISHAGTAIGIMASDGIVLAAERKVTSTLLEQDTSTEKLYKLNDKIAVAVAGLTADAEILINTARIHAQNYLKTYNEDIPVEILVRRLSDIKQGYTQHGGLRPFGVSFIYAGYDDRYGYQLYTSNPSGNYTGWKAISVGANTSAAQTLLQMDYKDDMKVDDAIELALKTLSKTTDSSALTYDRLEFATIRKGANDGEVYQKIFKPQEIKDILVKTGITKKDEDEEADEDMK
notes: alpha3 subunit of the core particle alpha ring, budding yeast; Stood in the assay as a subunit of m6; source: subunit of the 26S proteasome (3X FLAG) purified from yeast

binding result [6]: binds
B3: Rpt1 (proteasome subunit) (natural protein, budding yeast)
chain: MPPKEDWEKYKAPLEDDDKKPDDDKIVPLTEGDIQVLKSYGAAPYAAKLKQTENDLKDIEARIKEKAGVKESDTGLAPSHLWDIMGDRQRLGEEHPLQVARCTKIIKGNGESDETTTDNNNSGNSNSNSNQQSTDADEDDEDAKYVINLKQIAKFVVGLGERVSPTDIEEGMRVGVDRSKYNIELPLPPRIDPSVTMMTVEEKPDVTYSDVGGCKDQIEKLREVVELPLLSPERFATLGIDPPKGILLYGPPGTGKTLCARAVANRTDATFIRVIGSELVQKYVGEGARMVRELFEMARTKKACIIFFDEIDAVGGARFDDGAGGDNEVQRTMLELITQLDGFDPRGNIKVMFATNRPNTLDPALLRPGRIDRKVEFSLPDLEGRANIFRIHSKSMSVERGIRWELISRLCPNSTGAELRSVCTEAGMFAIRARRKVATEKDFLKAVDKVISGYKKFSSTSRYMQYN
notes: Rpt1, ATPase of the regulatory particle, budding yeast; Stood in the assays as a subunit of m6 or m10; source: subunit of the 26S proteasome (3X FLAG) or RP (Protein A) purified from yeast

binding result [6]: binds
B4: Rpt1-S164R T166K (natural protein, budding yeast)
chain: B3 chain with S164R, T166K
notes: Rpt1, ATPase of the regulatory particle, budding yeast, with S164R and T166K; Stood in the assay as a subunit of m7; also called Rpt1-RK; rpt1-RK; source: subunit of the Rpt1-RK 26S proteasome (3X FLAG) purified from yeast
